This is an account of results in patent publication US20220110894A1 (ACCUBIT LLC BIOTECHNOLOGY, published 2022).

Series [1] deals with the molecule itself. Description: SEC, non-reducing SDS-PAGE and TEM; self-association of rIgA duplexes into poly-rIgA. As for the experimental part:
Before running on SEC, samples were treated with the drugs at indicated concentrations at 37° C. for one hour.
(§1) In the meantime, the SEC column was also equilibrated with PBS supplemented with the reducing agent at the same concentration. For running SEC, 100 μL of the recombinant IgA (concentration varies between 1 mg/mL and 8 mg/mL) or purified native human IgA1 (˜1 mg/mL) was loaded to the column and UV absorption was recorded following elution. Recombinant IgA typically formed two elution peaks: a minor peak of ˜800 kDa poly-rIgA followed by a major peak of ˜170 kDa of monomeric rIgA. The ratios between poly-rIgA and mono-rIgA were calculated as between the corresponding areas under the curve (AUC), and the treatment effect of the thiol agents was judged by the reduction of the poly-rIgA level with a compensatory increase of the mono-rIgA content.
To further investigate specific cysteine residue(s) involved in IgA complexes, expression vectors were constructed to produce recombinant IgA (rIgA) Fc segments of rat and human sequences (FIG. 2, part A) as discussed above. Rat IgA analogs were expressed in BL21 DE3 strain of E. coil and recombinant protein were purified from the bacterial lysate using Histrap HP columns (GE Healthcare) by running fast protein liquid chromatography (FPLC). […]

Series [2] deals with the molecule itself. Description: SEC, self-association into poly-rIgA. The method, then: as §1
Considering that the fragment contained Cys311 and Cys471 that, in the absence of J-chain and SC, were in their free forms and available for connecting other rIgA units, mutagenesis studies were conducted of these two cysteines. Cys311 and Cys471 were either individually, or together, mutated to serine (S) as discussed above. […] By examining the SEC traces of these mutants, it was noticed that, while the monomers of all variants appeared the same, there were dramatic differences in the poly-rIgA contents. […] Meanwhile, C311S-alone still had poly-rIgA contents, albeit eluted at a different time in SEC than the wild-type protein (FIG. 3, part F). […]
(In gel filtration, larger molecules generally elute earlier.)

Series [3] concerns the molecule itself. The series is described as follows: SEC, self-association into poly-rIgA1.

B1: wild-type rat IgA-Fc segment of CH2-CH3-TP (recombinant rat rIgA) (other)
chain: SCSLVCRPRLSLQRPALEDLLLGSEASLTCTLRGLKEPTGAVFTWQPTTGKDAVQKEAVQDSCGCYTVSSVLPGCAERWNNGETFTCTATHPEFETPLTGEIAKVTENTFPPQVHLLPPPSEELALNELVSLTCLVRGFNPKDVLVRWLQGNEELPSESYLVFEPLREPGEGAITYLVTSVLRVSAETWKQGAQYSCMVGHEALPMSFTQKTIDRLSGKPTNVNVSVIMSEGDGICY
notes: Expressed in E. coli BL21 DE3; Two chains form a duplex called mono-rIgA; poly-rIgA is its disulfide-linked self-aggregate; also called mono-rIgA; poly-rIgA; not shown: N-terminal 6xHis-tag from the PET30a vector
Turning to B1, the binding result in series [1] is recorded as “binds”.

B2: rat rIgA C311S single mutant (other)
chain: SCSLVCRPRLSLQRPALEDLLLGSEASLTCTLRGLKEPTGAVFTWQPTTGKDAVQKEAVQDSCGCYTVSSVLPGSAERWNNGETFTCTATHPEFETPLTGEIAKVTENTFPPQVHLLPPPSEELALNELVSLTCLVRGFNPKDVLVRWLQGNEELPSESYLVFEPLREPGEGAITYLVTSVLRVSAETWKQGAQYSCMVGHEALPMSFTQKTIDRLSGKPTNVNVSVIMSEGDGICY
notes: also called C311S-alone; not shown: N-terminal 6xHis-tag from the PET30a vector
Regarding B2, the binding result in series [2] is reported as “binds”.

B3: human rIgA1-Fc (human IgA1-Fc CH2-CH3-TP) (other)
chain: SCCHPRLSLHRPALEDLLLGSEANLTCTLTGLRDASGVTFTWTPSSGKSAVQGPPERDLCGCYSVSSVLPGCAEPWNHGKTFTCTAAYPESKTPLTATLSKSGNTFRPEVHLLPPPSEELALNELVTLTCLARGFSPKDVLVRWLQGSQELPREKYLTWASRQEPSQGTTTFAVTSILRVAAEDWKKGDTFSCMVGHEALPLAFTQKTIDRLAGKPTHVNVSVVMAEVDGTCY
notes: Produced in HEK293 cells, secreted; also called hu-rIgA; wild-type rIgA1; not shown: 6xHis-tag at the N-terminus after the IL-2 signal peptide (secreted)
As to B3, the binding result in series [3] is recorded as “binds”.
